Starred links: 1 amine or outer side, 2 acyl side, 3 side chain; linkers in the order of their positions; H or OH if unused. Non-standard residues stand in square brackets, D forms with d. Residues, ends and D or L forms follow the SMILES beside them. *: point of attachment. Paclitaxel(2'-OCO-DMEDA) = CC(=O)O[C@H]1C(=O)[C@@]2(C)[C@H]([C@H](OC(=O)c3ccccc3)[C@]3(O)C[C@H](OC(=O)[C@H](OC(=O)N(C)CCN(C)*)[C@@H](NC(=O)c4ccccc4)c4ccccc4)C(C)=C1C3(C)C)[C@]1(OC(C)=O)CO[C@@H]1C[C@@H]2O; Fmoc = O=C(OCC1c2ccccc2-c2ccccc21)*; PABC = O=C(OCc1ccc(N[*:1])cc1)[*:2]
What was measured:
[1] = Liver S9 fraction stability assay, rat; assay type: in vitro ADME; details: 37 °C; for remaining at 0.5 h, 1 μM / remaining at 1.5 h, 1 μM: male, liver S9 fraction, read-out: S9 stability (matrix: rat) % remaining; for remaining at 0.5 h, 1 μM: 30 min
Experimental: (§1) The plasma stability assays were performed by Selvita SA (Krakow, Poland) following the protocol described in the Supporting Information. For the use of human plasma, consent was obtained from the subject or from the next of kin.
(§2) 9. Plasma stability assays […]
(§3) Protocol for S9 fraction: a stock solution of compounds 1-4 in DMSO was incubated in human (male, pooled, commercially obtained from Xeno-tech lot: 2310104) and rat (male, pooled, commercially obtained from Xeno-tech (lot: 2210317)) S9 fraction at a final concentration of 1 μM (final concentration of DMSO = 0.5 %). The samples were incubated at 37 °C with a shaking of 450 rpm.
(§4) Aliquots of the samples were analyzed at time 0, 30 and 90 minutes by LC-MS/MS analysis.
(§5) The areas of the peak of the compounds 1-4 in the LC chromatogram were used to evaluate stability profile. The percentage of residual compounds 1-4 was calculated as the ratio between the area of the peak of the analyte and the area of the internal standard.
(§6) % residual compound = Area analyte ∙ 100
(§7) Table S7. LC-MS data of the stability assays in plasma extracts of compound 1.
(§8) Stability assays compound 1
(§9) Time Plasma stability Plasma stability S9 stability S9 stability
(§10) (min.) (matrix: rat) (matrix: human) Time (min.) (matrix: rat) (matrix: human) % remaining % remaining % remaining % remaining
(§11) Table S8. LC-MS data of the stability assays in plasma extracts of compound 2.
(§12) Stability assays compound 2

[2] = Liver S9 fraction stability assay, human; assay type: in vitro ADME; details: 37 °C; for remaining at 0.5 h, 1 μM / remaining at 1.5 h, 1 μM: male, liver S9 fraction, read-out: S9 stability (matrix: human) % remaining; for remaining at 0.5 h, 1 μM: 30 min
Experimental: as §1, §2, §3, §4, §5, §6, §7, §8, §9, §10, §11, §12

[3] = target: T1, bovine spleen Cathepsin B (Bos taurus, UniProt P07688); test: Preliminary Cathepsin B cleavage assay for protocol validation, HPLC vs UHPLC-HRMS; assay type: biochemical; details: for % residual compound, HRMS: UHPLC-HRMS (Orbitrap) detection; for % residual compound, HPLC: analytical HPLC detection
T1 construct: bovine spleen Cathepsin B (SigmaAldrich C6286, ≥10 units/mg protein); purchased SigmaAldrich C6286; host or cells: bovine spleen (tissue-derived)
Experimental: The Cathepsin B cleavage assay was performed by incubating compounds 1–4 at 37 °C under gently shaking conditions in the presence of the active form of Cathepsin B. More specifically, 122.4 μL of an enzyme-activating solution (composed of 7.48 mg of L-cysteine dissolved in 2 mL of a buffer solution containing 20 mM NaOAc, 1 mM EDTA, pH 5.4 to give a final cysteine concentration of 30.88 mM) was mixed with 12.6 μL of enzyme stock solution, previously prepared by solubilization of bovine spleen Cathepsin B (SigmaAldrich C6286, ≥10 units/mg protein) in 1 mL of buffer solution (without cysteine) to give a concentration of enzyme stock solution of 12 units/mL. After the dilution, the final concentration of Cathepsin B was 1.12 u/mL. Then, the diluted enzyme solution was incubated at 37 °C for 15 min to activate Cathepsin B. After 15 min, 6 μL of 117 μM compound solution, previously prepared by diluting 5.85 μL of 1 mM stock solution of the compound in 44.15 μL of dry DMSO (giving a 117 μM solution), was added to the test tube and the cleavage assay solution was incubated at 37 °C under gentle shaking conditions. Sample aliquots (10 μL) were taken out at 15, 30 min, and 1, 2, 4, and 24 h and quenched with 10 μL of MeOH+1% formic acid. The solutions were then centrifuged for 10 min at 6000 rpm. Blank solutions were prepared for each compound by dilution of 6 μL of a 117 μM compound solution into 135 μL of an enzyme-activating solution. UHPLC-MS analyses were carried out using a Vanquish UHPLC System (Thermo Fisher Scientific) and Orbitrap Exploris 120 (Thermo Fisher Scientific). Thermo Scientific Xcalibur software was used to control the instruments and acquire the data. Freestyle 1.8 software was used for processing the data. UHPLC chromatographic separations were performed on a reversed-phase column Accucore C18 50 × 2.1 mm, 2.6 μm (Thermo Fisher Scientific). A gradient system was used with the mobile phase consisting of solvent A: H2O + 0.05% formic acid and solvent B: acetonitrile. The areas of the peak of compounds 1–4 in the extracted ion chromatogram were used to evaluate the kinetics of the cleavage process. The percentage of residual compound was calculated as the ratio between the areas of the peak of the full compound at the desired time point and in the blank analysis. %Residualcompound=areacompoundatthedesiredtimepoint/areacompoundintheblanksolution×100
Based on the similarity of the Cathepsin B recognized sequence GFLG to GPLG, we inferred that the latter could also be recognized by the same lysosomal enzyme. Therefore, a Cathepsin B cleavage assay for compound 1 was planned, and the experiment was designed to focus on a short incubation time (up to 4 h) to better mimic the fast transient and dynamic environment of drug clearance and activation generally occurring in in vivo conditions. An Orbitrap mass analyzer was chosen to analyze the final incubated solution due to its higher sensitivity compared to traditional HPLC methods, thereby allowing precise evaluation of the drug release kinetics even at low compound concentrations. At first, to validate the designed Orbitrap-protocol over the HPLC protocols generally reported in the literature, we initially performed the cleavage assay on compound 4 containing the VA sequence, for which the recognition by the Cathepsin B enzyme is well documented. ,− For instance, compound 4 was incubated at 37 °C with a sodium acetate buffer solution (final concentration of 4: 5 μM) containing the active form of the Cathepsin B enzyme, and diluted aliquots at 0–30–60–120 and 240 min were collected and analyzed by a UHPLC-Orbitrap instrument and, in parallel, by analytical HPLC. As shown in Figure S26 of the Supporting Information, the degradation of the VA-based compound 4 can be appreciated from both analyses; however, an expected remarkable difference between the two methods was noted regarding the final concentration of the compound 4 at the end of the experiment. […]

Structure (SMILES)	remaining at 0.5 h, 1 μM ([1]; rat) [%]	remaining at 1.5 h, 1 μM ([1]; rat, 90 min (1.5 h)) [%]	remaining at 0.5 h, 1 μM ([2]; human) [%]	remaining at 1.5 h, 1 μM ([2]; human, 90 min (1.5 h)) [%]	remaining at 0.5 h, 1 μM [1] [%]	remaining at 1.5 h, 1 μM ([1]; 90 min (1.5 h)) [%]	remaining at 0.5 h, 1 μM [2] [%]	remaining at 1.5 h, 1 μM ([2]; 90 min (1.5 h)) [%]	% residual compound, HRMS ([3]; 30 min with Cathepsin B) [%]	% residual compound, HRMS ([3]; 60 min with Cathepsin B) [%]	% residual compound, HRMS ([3]; 120 min with Cathepsin B) [%]	% residual compound, HRMS ([3]; 240 min (4 h) with Cathepsin B) [%]	% residual compound, HPLC ([3]; 30 min with Cathepsin B) [%]	% residual compound, HPLC ([3]; 60 min with Cathepsin B) [%]	% residual compound, HPLC ([3]; 120 min with Cathepsin B) [%]	S9 stability (matrix: rat) % remaining ([1]; 1 μM, 90 min (1.5 h)) [%]	S9 stability (matrix: human) % remaining ([2]; 1 μM, 90 min (1.5 h)) [%]
CC(=O)O[C@H]1C(=O)[C@@]2(C)[C@H]([C@H](OC(=O)c3ccccc3)[C@]3(O)C[C@H](OC(=O)[C@H](OC(=O)N(C)CCN(C)C(=O)OCc4ccc(NC(=O)CNC(=O)[C@H](CC(C)C)NC(=O)[C@@H]5CCCN5C(=O)CNC(=O)OCC5c6ccccc6-c6ccccc65)cc4)[C@@H](NC(=O)c4ccccc4)c4ccccc4)C(C)=C1C3(C)C)[C@]1(OC(C)=O)CO[C@@H]1C[C@@H]2O [Compound 1, Fmoc-GPLG-PABC-diamine-PTX] (Fmoc-GPLG[PABC]-{Paclitaxel(2'-OCO-DMEDA)})	88.8	94.5	104	95													
CC(=O)O[C@H]1C(=O)[C@@]2(C)[C@H]([C@H](OC(=O)c3ccccc3)[C@]3(O)C[C@H](OC(=O)[C@H](OC(=O)N(C)CCN(C)C(=O)OCc4ccc(NC(=O)CNC(=O)[C@H](CC(C)C)NC(=O)[C@H](Cc5ccccc5)NC(=O)CNC(=O)OCC5c6ccccc6-c6ccccc65)cc4)[C@@H](NC(=O)c4ccccc4)c4ccccc4)C(C)=C1C3(C)C)[C@]1(OC(C)=O)CO[C@@H]1C[C@@H]2O [Compound 2, Fmoc-GFLG-PABC-diamine-PTX] (Fmoc-GFLG[PABC]-{Paclitaxel(2'-OCO-DMEDA)})	72.8	61.8	133	95.2													
CC(=O)O[C@H]1C(=O)[C@@]2(C)[C@H]([C@H](OC(=O)c3ccccc3)[C@]3(O)C[C@H](OC(=O)[C@H](OC(=O)N(C)CCN(C)C(=O)OCc4ccc(NC(=O)[C@H](CCCNC(N)=O)NC(=O)[C@@H](NC(=O)OCC5c6ccccc6-c6ccccc65)C(C)C)cc4)[C@@H](NC(=O)c4ccccc4)c4ccccc4)C(C)=C1C3(C)C)[C@]1(OC(C)=O)CO[C@@H]1C[C@@H]2O [Compound 3, Fmoc-VCit-PABC-diamine-PTX]					86.5	42.6	133	95.2									
CC(=O)O[C@H]1C(=O)[C@@]2(C)[C@H]([C@H](OC(=O)c3ccccc3)[C@]3(O)C[C@H](OC(=O)[C@H](OC(=O)N(C)CCN(C)C(=O)OCc4ccc(NC(=O)[C@H](C)NC(=O)[C@@H](NC(=O)OCC5c6ccccc6-c6ccccc65)C(C)C)cc4)[C@@H](NC(=O)c4ccccc4)c4ccccc4)C(C)=C1C3(C)C)[C@]1(OC(C)=O)CO[C@@H]1C[C@@H]2O [Compound 4, Fmoc-VA-PABC-diamine-PTX]	81.1	81.2	107	79.7					73.35	68.45	65.40	63.70	25.11	20.48	13.68	81.17	79.75

— paper PMC12444563 (ACS Omega, 2025)
